This passage reports abundance fitness results from the Human Domainome abundance scans (Beltran et al. 2025).

The chains are these.
B1: Chromodomain-helicase-DNA-binding protein 4, residues 623 to 675; numbered along this chain, Q14839 (parent)
chain: MIHRILNHSVDKKGHVHYLIKWRDLPYDQASWESEDVEIQDYDLFKQSYWNHR

± gives the uncertainty stated by the source.

Variants of B1 are the subject of the series. Briefly: abundance fitness (aPCA) (normalised: wild type 0, dead -1); higher = more abundant; growth selection in yeast, the domain comes from the species named. The following applies: Homo sapiens.
Consider H17R, for which the abundance fitness was -0.174 ± 0.077.

As to H17Y, the abundance fitness is -0.04 ± 0.11. The figure for H17P is -0.91 ± 0.25; for H17A it is -0.252 ± 0.091; for H17L it is -0.292 ± 0.084. The figure for H17D is -0.43 ± 0.12; for H17W it is -0.302 ± 0.11.

Take H17I: the abundance fitness is -0.068 ± 0.13. The figure for H17S is -0.155 ± 0.094; for H17G it is -0.756 ± 0.094; for H17F it is -0.312 ± 0.2.

On to H17T, for which the abundance fitness worked out at 0.115 ± 0.11. H17N: the abundance fitness was -0.052 ± 0.15. To H17M belongs -0.034 ± 0.094; to H17C, 0.031 ± 0.15; to H17Q, -0.098 ± 0.12.

With H17E, the abundance fitness was -0.242 ± 0.093.

With I20E, the abundance fitness was -0.842 ± 0.31. The figure for I20L is -0.622 ± 0.087; for I20W it is -0.633 ± 0.18. The figure for I20F is -0.946 ± 0.13. To I20K belongs -0.878 ± 0.29. As for I20Q, the abundance fitness is -0.874 ± 0.21. To I20T belongs -0.885 ± 0.12; to I20Y, -0.825 ± 0.17. To I20M belongs -0.612 ± 0.14.

For I20S, the abundance fitness is -0.778 ± 0.092. To I20V belongs -0.276 ± 0.088. To I20A belongs -0.921 ± 0.1; to I20G, -0.791 ± 0.12. Consider I20C, for which the abundance fitness was -0.686 ± 0.14. The figure for I20N is -0.838 ± 0.15. To I20R belongs -0.722 ± 0.092; to L19V, -0.814 ± 0.14; to L19H, -0.814 ± 0.2. To L19G belongs -0.604 ± 0.17. Take L19D: the abundance fitness is -0.71 ± 0.27. Regarding L19A, the abundance fitness is -0.892 ± 0.23. To L19N belongs -0.262 ± 0.35. Regarding L19F, the abundance fitness was -0.518 ± 0.21.

L19I: the abundance fitness is -0.772 ± 0.46. The figure for L19P is -0.74 ± 0.24; for L19S it is -0.703 ± 0.17.

As to L19C, the abundance fitness was -0.924 ± 0.27. The figure for L19T is -0.775 ± 0.3.

Regarding L19Y, the abundance fitness is -0.282 ± 0.26. To L19W belongs -0.866 ± 0.27. To R4E belongs 0.058 ± 0.14; to R4Q, -0.233 ± 0.16.

Regarding R4W, the abundance fitness was -0.263 ± 0.12. For R4N, the abundance fitness was -0.331 ± 0.15. Regarding R4K, the abundance fitness amounted to 0.145 ± 0.11. To R4D belongs -0.479 ± 0.17; to R4G, -0.481 ± 0.1. As for R4V, the abundance fitness is -0.371 ± 0.11.

On to R4T, for which the abundance fitness is -0.047 ± 0.1.

Consider R4P, for which the abundance fitness was -0.788 ± 0.14. With R4L, the abundance fitness is -0.221 ± 0.09. To R4Y belongs -0.102 ± 0.15; to R4M, -0.136 ± 0.12. As to R4S, the abundance fitness is -0.117 ± 0.087. Regarding R4H, the abundance fitness was -0.108 ± 0.14. With V10F, the abundance fitness was -0.207 ± 0.11. The figure for V10H is -0.557 ± 0.14.

Take V10M: the abundance fitness is -0.495 ± 0.1.

With V10D, the abundance fitness is -0.682 ± 0.15.

As for V10S, the abundance fitness is -0.47 ± 0.089.

In the case of V10G, the abundance fitness is -0.895 ± 0.11.

As to V10L, the abundance fitness was -0.332 ± 0.08. The figure for V10K is -0.144 ± 0.12. To V10I belongs -0.286 ± 0.097; to V10N, -0.714 ± 0.14. To V10P belongs -0.571 ± 0.12; to V10Y, 0.115 ± 0.12. As for V10Q, the abundance fitness is -0.377 ± 0.14. The figure for V10C is -0.562 ± 0.12. The figure for V10T is -0.093 ± 0.1. For V10W, the abundance fitness is -0.533 ± 0.13.

With V10E, the abundance fitness is -0.447 ± 0.12.

As for V10R, the abundance fitness is -0.262 ± 0.085.

In the case of K12I, the abundance fitness was -0.136 ± 0.11. The figure for K12E is -0.158 ± 0.2. Regarding K12W, the abundance fitness is -0.19 ± 0.15. The figure for K12Q is -0.084 ± 0.25; for K12R it is -0.246 ± 0.12. To K12Y belongs -0.184 ± 0.13; to K12N, -0.073 ± 0.12; to K12L, -0.239 ± 0.099. The figure for K12H is 0.01 ± 0.14; for K12G it is -0.078 ± 0.091. On to K12F, for which the abundance fitness was -0.514 ± 0.13. In the case of K12V, the abundance fitness is -0.171 ± 0.1. To K12P belongs -0.083 ± 0.14; to K12S, -0.074 ± 0.092; to K12M, 0 ± 0.13. To K12D belongs -0.103 ± 0.15; to K12A, -0.01 ± 0.1; to L6I, -0.046 ± 0.087.

On to L6K, for which the abundance fitness was -0.918 ± 0.26. To L6R belongs -0.805 ± 0.11; to L6F, -0.73 ± 0.12. The figure for L6V is -0.231 ± 0.089; for L6T it is -0.75 ± 0.1; for L6Q it is -0.6 ± 0.17. To L6N belongs -0.804 ± 0.12. For the variant L6W, the abundance fitness is -1.07 ± 0.2. For the variant L6M, the abundance fitness was -0.542 ± 0.17. The figure for L6Y is -0.735 ± 0.12.

On to L6H, for which the abundance fitness is -0.76 ± 0.11.

On to L6A, for which the abundance fitness is -0.79 ± 0.12.

L6D: the abundance fitness was -0.907 ± 0.15. As to L6C, the abundance fitness is -0.333 ± 0.11. To L6P belongs -0.695 ± 0.11. To L6S belongs -0.824 ± 0.096; to G14S, -0.768 ± 0.087; to G14M, -1.05 ± 0.2. G14E: the abundance fitness is -1.12 ± 0.28. The figure for G14C is -0.785 ± 0.12; for G14D it is -0.727 ± 0.11; for G14I it is -0.656 ± 0.12. To G14F belongs -0.716 ± 0.11; to G14Y, -0.634 ± 0.093. To G14A belongs -0.919 ± 0.13; to G14K, -0.404 ± 0.21; to G14P, -0.714 ± 0.11. With G14Q, the abundance fitness is -0.714 ± 0.16. To G14H belongs -0.86 ± 0.1; to G14R, -0.761 ± 0.1. To G14T belongs -1.08 ± 0.14; to G14W, -0.726 ± 0.18; to G14N, -0.451 ± 0.084. As to H8K, the abundance fitness was -0.956 ± 0.24.

Turning to H8T, the abundance fitness is -0.791 ± 0.21. H8S: the abundance fitness was -0.713 ± 0.11. The figure for H8D is -0.92 ± 0.16; for H8E it is -0.69 ± 0.17; for H8Q it is -0.813 ± 0.2. The figure for H8C is -0.647 ± 0.15.

Consider H8W, for which the abundance fitness was -0.863 ± 0.15. Consider H8F, for which the abundance fitness was -0.875 ± 0.18.

As to H8I, the abundance fitness is -0.645 ± 0.12.

As to H8Y, the abundance fitness was -0.803 ± 0.14. To H8L belongs -0.806 ± 0.09.

On to H8P, for which the abundance fitness is -0.831 ± 0.17. To H8N belongs -0.75 ± 0.17; to H8R, -0.634 ± 0.1. For the variant H8G, the abundance fitness was -0.832 ± 0.11. To H8V belongs -0.918 ± 0.092.

In the case of H8M, the abundance fitness is -0.847 ± 0.14. To H8A belongs -0.857 ± 0.14; to I5D, -0.999 ± 0.2. Take I5P: the abundance fitness is -0.522 ± 0.14. For the variant I5M, the abundance fitness is -0.746 ± 0.21. For the variant I5F, the abundance fitness was -0.827 ± 0.16. The figure for I5L is -0.497 ± 0.099; for I5Y it is -1.02 ± 0.19. With I5A, the abundance fitness was -0.778 ± 0.14. The figure for I5R is -0.81 ± 0.11; for I5Q it is -0.591 ± 0.2; for I5N it is -1.01 ± 0.21.

With I5W, the abundance fitness was -0.767 ± 0.2.

As for I5T, the abundance fitness is -0.914 ± 0.14. The figure for I5S is -0.823 ± 0.12. As for I5H, the abundance fitness is -0.721 ± 0.13. The figure for I5C is -1.07 ± 0.18; for I5G it is -0.933 ± 0.15; for I5V it is -0.842 ± 0.14.
